This is an account of results in article PMC8604728.

B1: unnamed (parent)
chain 1: DYMGWMDF
chain 2: MDVVDSLLVNGSNITPPCELGLENETLFCLDQPRPSKEWQPAVQILLYSLIFLLSVLGNTLVITVLIRNKRMRTVTNIFLLSLAVSDLMLCLFCMPFNLIPNLLKDFIFGSAVCKTTTYFMGTSVSVSTFNLVAISLERYGAICKPLQSRVWQTKSHALKVIAATWCLSFTIMTPYPIYSNLVPFTKNNNQTANMCRFLLPNDVMQQSWHTFLLLILFLIPGIVMMVAYGLISLELYQGIKFEASQKKSAKERKPSTTSSGKYEDSDGCYLQKTRPPRKLELRQLSTGSSSRANRIRSNSSAANLMAKKRVIRMLIVIVVLFFLCWMPIFSANAWRAYDTASAERRLSGTPISFILLLSYTSSCVNPIIYCFMNKRFRLGFMATFPCCPNPGPPGARGEVGEEEEGGTTGASLSRFSYSHMSASVPPQ

In the test the parent is B1. In words: radiolabeled ligand-binding assay (competition with unlabeled CCK-8). The following applies: upper plateau of the fitted competition curve at the lowest CCK-8 concentration (log [CCK-8] = -12), read off a plot.
For the variant chain 2 MDVVDSLLVNGSNITPPCELGLENETLFCLDQPRPSKEWQPAVQILLYSLIFLLSVLGNTLVITVLIRNKRMRTVTNIFLLSLAVSDLMLCLFCMPFNLIPNLLKDFIFGSAVCKTTTYFMGTSVSVSTFNLVAISLERYGAICKPLQSRVWQTKSHALKVIAATWCLSFTIMTPYPIYSNLVPFTKNNNQTANACRFLLPNDVMQQSWHTFLLLILFLIPGIVMMVAYGLISLELYQGIKFEASQKKSAKERKPSTTSSGKYEDSDGCYLQKTRPPRKLELRQLSTGSSSRANRIRSNSSAANLMAKKRVIRMLIVIVVLFFLCWMPIFSANAWRAYDTASAERRLSGTPISFILLLSYTSSCVNPIIYCFMNKRFRLGFMATFPCCPNPGPPGARGEVGEEEEGGTTGASLSRFSYSHMSASVPPQ [chain 2 M195A], the percent of parent worked out at 30 % WT.

chain 2 MDVVDSLLVNGSNITPPCELGLENETLFCLDQPRPSKEWQPAVQILLYSLIFLLSVLGNTLVITVLIRNKRMRTVTNIFLLSLAVSDLMLCLFCMPFNLIPNLLKDFIFGSAVCKTTTYFAGTSVSVSTFNLVAISLERYGAICKPLQSRVWQTKSHALKVIAATWCLSFTIMTPYPIYSNLVPFTKNNNQTANMCRFLLPNDVMQQSWHTFLLLILFLIPGIVMMVAYGLISLELYQGIKFEASQKKSAKERKPSTTSSGKYEDSDGCYLQKTRPPRKLELRQLSTGSSSRANRIRSNSSAANLMAKKRVIRMLIVIVVLFFLCWMPIFSANAWRAYDTASAERRLSGTPISFILLLSYTSSCVNPIIYCFMNKRFRLGFMATFPCCPNPGPPGARGEVGEEEEGGTTGASLSRFSYSHMSASVPPQ [chain 2 M121A]: the percent of parent worked out at 230 % WT.

As to chain 2 MDVVDSLLVNGSNITPPCELGLENETLFCLDQPRPSKEWQPAVQILLYSLIFLLSVLGNTLVITVLIRNKRMRTVTNIFLLSLAVSDLMLCLFCMPFNLIPNLLKDFIFGSAVCKTTAYFMGTSVSVSTFNLVAISLERYGAICKPLQSRVWQTKSHALKVIAATWCLSFTIMTPYPIYSNLVPFTKNNNQTANMCRFLLPNDVMQQSWHTFLLLILFLIPGIVMMVAYGLISLELYQGIKFEASQKKSAKERKPSTTSSGKYEDSDGCYLQKTRPPRKLELRQLSTGSSSRANRIRSNSSAANLMAKKRVIRMLIVIVVLFFLCWMPIFSANAWRAYDTASAERRLSGTPISFILLLSYTSSCVNPIIYCFMNKRFRLGFMATFPCCPNPGPPGARGEVGEEEEGGTTGASLSRFSYSHMSASVPPQ [chain 2 T118A], the percent of parent came out at 110 % WT.

For chain 2 MDVVDSLLVNGSNITPPCELGLENETLFCLDQPRPSKEWQPAVQILLYSLIFLLSVLGNTLVITVLIRNKRMRTVTNIFLLSLAVSDLMLCLFCMPFNLIPNLLKDFIFGSAVCKTTTYFMGTSVSVSTFNLVAISLERYGAICKPLQSRVWQTKSHALKVIAATWCLSFTIMTPYPIYSNLVPFTKNNNQTANMCRFLLPNDVMQQSWHTFLLLILFLIPGIVMMVAYGLISLELYQGIKFEASQKKSAKERKPSTTSSGKYEDSDGCYLQKTRPPRKLELRQLSTGSSSRANRIRSNSSAANLMAKKRVIRMLIVIVVLFFLCWMPIFSANAWRAYDTASAERRLSGTPISFILLLSATSSCVNPIIYCFMNKRFRLGFMATFPCCPNPGPPGARGEVGEEEEGGTTGASLSRFSYSHMSASVPPQ [chain 2 Y360A], the percent of parent worked out at 28 % WT.

As for chain 2 MDVVDSLLVNGSNITPPCELGLENETLFCLDQPRPSKEWQPAVQILLYSLIFLLSVLGNTLVITVLIRNKRMRTVTNIFLLSLAVSDLMLCLFCMPFNLIPNLLKDFIFGSAVCKTTTYFMGTSVSVSTFNLVAISLERYGAICKPLQSRVWQTKSHALKVIAATWCLSFTIMTPYPIYSNLVPATKNNNQTANMCRFLLPNDVMQQSWHTFLLLILFLIPGIVMMVAYGLISLELYQGIKFEASQKKSAKERKPSTTSSGKYEDSDGCYLQKTRPPRKLELRQLSTGSSSRANRIRSNSSAANLMAKKRVIRMLIVIVVLFFLCWMPIFSANAWRAYDTASAERRLSGTPISFILLLSYTSSCVNPIIYCFMNKRFRLGFMATFPCCPNPGPPGARGEVGEEEEGGTTGASLSRFSYSHMSASVPPQ [chain 2 F185A], the percent of parent amounted to 15 % WT.

In the case of chain 2 MDVVDSLLVNGSNITPPCELGLENETLFCLDQPRPSKEWQPAVQILLYSLIFLLSVLGNTLVITVLIRNKRMRTVTNIFLLSLAVSDLMLCLFCMPFNLIPNLLKDFIFGSAVCKTTTYFMGTSVSVSTFNLVAISLERYGAICKPLQSRVWQTKSHALKVIAATWCLSFTIMTPYPIYSNLVPFTKNNNQTANMCRFLLPNDVMQQSWATFLLLILFLIPGIVMMVAYGLISLELYQGIKFEASQKKSAKERKPSTTSSGKYEDSDGCYLQKTRPPRKLELRQLSTGSSSRANRIRSNSSAANLMAKKRVIRMLIVIVVLFFLCWMPIFSANAWRAYDTASAERRLSGTPISFILLLSYTSSCVNPIIYCFMNKRFRLGFMATFPCCPNPGPPGARGEVGEEEEGGTTGASLSRFSYSHMSASVPPQ [chain 2 H210A], the percent of parent turned out to be 70 % WT.

With chain 2 MDVVDSLLVNGSNITPPCELGLENETLFCLDQPRPSKEWQPAVQILLYSLIFLLSVLGNTLVITVLIRNKRMRTVTNIFLLSLAVSDLMLCLFCMPFNLIPNLLADFIFGSAVCKTTTYFMGTSVSVSTFNLVAISLERYGAICKPLQSRVWQTKSHALKVIAATWCLSFTIMTPYPIYSNLVPFTKNNNQTANMCRFLLPNDVMQQSWHTFLLLILFLIPGIVMMVAYGLISLELYQGIKFEASQKKSAKERKPSTTSSGKYEDSDGCYLQKTRPPRKLELRQLSTGSSSRANRIRSNSSAANLMAKKRVIRMLIVIVVLFFLCWMPIFSANAWRAYDTASAERRLSGTPISFILLLSYTSSCVNPIIYCFMNKRFRLGFMATFPCCPNPGPPGARGEVGEEEEGGTTGASLSRFSYSHMSASVPPQ [chain 2 K105A], the percent of parent came out at 50 % WT.

As to chain 2 MDVVDSLLVNGSNITPPCELGLENETLFCLDQPRPSKEWQPAVQILLYSLIFLLSVLGNTLVITVLIRNKRMRTVTNIFLLSLAVSDLMLCLFCMPFNLIPNLLKDFIFGSAVCKTTTYFMGTSASVSTFNLVAISLERYGAICKPLQSRVWQTKSHALKVIAATWCLSFTIMTPYPIYSNLVPFTKNNNQTANMCRFLLPNDVMQQSWHTFLLLILFLIPGIVMMVAYGLISLELYQGIKFEASQKKSAKERKPSTTSSGKYEDSDGCYLQKTRPPRKLELRQLSTGSSSRANRIRSNSSAANLMAKKRVIRMLIVIVVLFFLCWMPIFSANAWRAYDTASAERRLSGTPISFILLLSYTSSCVNPIIYCFMNKRFRLGFMATFPCCPNPGPPGARGEVGEEEEGGTTGASLSRFSYSHMSASVPPQ [chain 2 V125A], the percent of parent stood at 75 % WT.
